Measurements taken from the nanobody polyreactivity screen of Harvey et al. (2022).

Assay: yeast display, Sf9 membrane polyspecificity reagent, FACS + sequencing; frameworks hold sequencing errors
In short: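 After 36–48 hours of galactose induction, yeast (Saccharomyces cerevisiae BJ5465) displaying a synthetic nanobody library were stained at 4 °C for 1 hour with 10% biotinylated, detergent-solubilized Sf9 membrane reagent. Streptavidin microbeads enriched the stained cells before FACS sorting into low and high (top ~1%) gates on anti-HA and streptavidin fluorescence. Each clone's polyreactivity label reflects its gate of origin.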

Sequence	polyreactivity (PSR sort gate)
QVQLVESGGGLVQAGASLRLSCAASGFTFGVYAMVWYRQAPGTVIELVAAISSSGGSTYYADSVKGRFTISRDNAKNTVYLQMNSLKPEDTAVYYCAKDTNSYYKYGYWGQGTQVTVSS	high polyreactivity
QVQLVESGGGLVQAGGSLRLSCAPSGFIFGSHAMGWYRQARGKERELVAAISARGGRTYYADSVKERFTISRDNAKNTVYLQMNSLKPADSAVYYCATLDTTGVNYWGQGTQVTVSS	high polyreactivity
QFQLVESGGGLVHAGGSLRLSCASSGSIFVVYAMGWYRQAPGKEREFVASIRTGGSTNYADSVKGRFTISRDNAKNTVYLQMNSLKPEDTAVYYCAAASWNSNRHYYVARYYYWGQGTQVTVSS	high polyreactivity
QVQLVESGGGLVQAGGSLRLSCAASGFIVRSYAMGWYRQAPGKERELVAVISRRGVNTHYADSVKGRFTISRDNAKNTVYFQMNSLKPEDTAVYYCAKGLTALGDYWGQGTQVTVSS	high polyreactivity
QVQLVESGGGLVQAGGSLRLSCAASGYTFHYNTMGGYRQAPGKERELVATISDGGSTNYADSVKGRFTISRDNAKNTVYLQMNSLKPEDTAVYYCAALYQQFQSALVPYFDVIEEDYWGQGTQVTVSS	low polyreactivity
QVQLVESGGGLVQAGGSLRLSCAASGYSFSYYAMGWSRQAPGKERELVAAISWSGGSTYYADSVKGRFTISRDNAKNTVYLQMNRLKPEDTAVYYCATEVVAYRRYSAYGYWGQGTQVTVSS	high polyreactivity
QVQLVESGGGLVQAGVSLRLSCAASGRTFRFYAMGWYRQAPGKERELVAAITGSGGSTYYADSVKGRFTISRDNAKNTVYLQMNCLKPEDTAVYYCAASRWREYHASKMDYWGQGTQVTVSS	low polyreactivity
QVQLVESGGGLVQAGGSLRLSCAASGSIFAVNAMGWYRPAPGKERELVAAITSGGITYYADSVKGRFTISRDNAKNTVYLQMNSLKPEDTAVYYCATVFSVQGWYFGMNYWGQGTQVTVSS	low polyreactivity
QVQLVESGGGLVQAGGSLRLSCAASGSTFGYYTMGWYRQAPGKERELVAAISRSGGRTYYADSVKGRFTISRDNAKKAVYLQMNSLKPEVTAVFYCNADGTRYAGDDYWGQGTQVTVSS	high polyreactivity
QVQLVESGGGLVQAGGSLSLSCAASVSTSLSYDMGWYRQAPGKERELVASITSSGGSTYYADSVKGRFTIARDNAKNTVYLQMKSLKPEDTAVYYCNARSYIYPFSPTSYYRYYWGQGTQVTVSS	high polyreactivity
QVQLVESGGGLDQAGGSLRLSCAASGFTFRHNTMGGYRQAPGKEREMVAAISIGGRTYYADSVKGRFTISRDNAKNTVYLQMNSLKPEDTAVYYCAKLSRGQSPGYDYWGQGTQVTVSS	high polyreactivity
QVQLVESGGGLVQAGGSLRLSCAASGSTFPRNDMGWYRQAPGKERELVAAISRGGSTNYADSVKGRFTISRDNAKNTVYLQMNSLKPEDTAVYYCAAQIIESAYGMDYWGQGTQVTVSS	low polyreactivity
QVQLVESGGGLVQARGSLRLSCAASGLTFRWYSMGWYRQAPGKERELVAAISSGGRTYYADSVKGRFTISRDNAKNTVYLQMNSLKPEDTAVYYCSKRTLDYGFGSYGREYWGEGTQVTVSS	high polyreactivity
QVQLVESGGGLVQAGGSLRLSCAASGGIFWYNAMGWYRQAPGKERELVAAITWNGGRTYYADSVKGRFTISRDNAKNTVYLQMNSLKPEDTAVYYCAARSPVKRQSRKQYYYWGQGTQVTVSS	high polyreactivity
QVQLVESVGGLVQAGCSLRLSCAASGSTFEVYAMGWYRQAPGKESELVATITWSGGSTYYADSVKGRFTISRDNAKTTVYLQMNSLKPEDTAVYYCNAVIRYYFWGKYYLYYYWGQGTQVTVSS	high polyreactivity
QVQLGESGGGIVQAGGSLRLSCAASGRTFAFNAMGWYRQAPGKERELVAAIRWSGGSTYYADSVKGRFTISRDNAKNTVYLQMNSLKPEDTAVYYCATGKWGYFRYNYWGQGTQVTVSS	high polyreactivity
QVQLVESGGGLVQAGGSLRLSCAASGFYYGMGWYRQAPGKERELVAAISRGGSTYYADSVKGRFTISRDNAKNTVYLQMNSLKPEDTAVYYCAATYRSLYGSRMGYWGQGTQVTVSS	high polyreactivity
QVQLVESGVGLVQAGGSLRLSCAASGGIFFYYAMGWSRQAPGKERELVAAISYSGGSTYYADSVKGRFTISRDNAKHTVYLQMNSVKPDDTAVNYCAAVPDYYEYSPYDYWGQGTQVTVSS	low polyreactivity
QVQLVESGGGLVQAGGSLRLSCAASGFTFGYYAMGWYRQAPGKERELVDAISSSGGSTYYSDSVKGSFTISRDNAKNTVYLQMNSLKPEDTAVYYCNRGTTVRGPGYTNGRDITRYDYWGQGTQVTVSS	high polyreactivity
QVQLVESGGGLVQAGGSLSLSCAASGSTFYNYAMGWYRQAPGKERELVASITWNGGSTYYADSVKGRFTISRDNAKNTVYLQMNSLKPEDTAVYYCAADWTWTYPYDYWGQGTQVTVSS	low polyreactivity
QVQLVESGGGLVQAGGSLRLSCAASGFIFEPYAMGWYRQEPGKERELVAAISNSDSTNYADSVKGLFTISRDNAKNTVYLQMNSLKAEDTAVYYCNADFSKSYDYWGQGTQVTVSS	low polyreactivity
QVQLVESGGGLVQAGGSLRLSCAASGNIIDANAMGWYRQAPGKERELVAAITSSGGSTYYADSVKGRFTISRDNANNTVYLQMNSLKPEDTAVYYCAKSHAIYYWWDESWGHGTQVTVSS	low polyreactivity
